Laboratory results from the supplement of paper PMC9732359.
± gives the uncertainty stated by the source.

Assay: protein stability index of a GFP-peptide fusion (yeast GPS) (PSI 1-4); higher = more stable; sorted into four equal gates, so the index is relative within each strain
In short: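 Peptides tiling yeast proteins in 17-residue segments were fused downstream of GFP, with Cherry expressed from the same plasmid. As a pooled library in yeast, mid-log cultures grown in leucine-free medium were sorted into four equal gates by GFP/Cherry fluorescence ratio. Gate plasmids were PCR-amplified and Illumina-sequenced, and barcodes linked reads to strains. Each peptide received a protein stability index equal to the sum of each gate's read frequency times its gate number.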

Row | Sequence | protein stability index (doa10∆) | protein stability index (pdr5∆) | protein stability index (san1∆) | protein stability index (ubr1∆)
1 | GLTSRLQRQQRKSKLNL [POP4] | 2.65 ± 0.12 | 3.34 ± 0.18 | 3.09 ± 0.063 | 3.67 ± 0.27
2 | LPILPIQRLRLLREKQR [YOR098C/NUP1] | 2.09 ± 0.086 | 1.55 ± 0.062 | 1.17 ± 0.25 | 2.02 ± 0.097
3 | EVGNRKHYLEDKLKVYK [SNF5] | 3.19 ± 0.1 | 3.19 ± 0.14 | 3.11 ± 0.12 | 3.06 ± 0.067
4 | ERKEQEEKEKEQSKEVG [BRN1] | 3.48 ± 0.21 |  | 3.49 ± 0.11 | 3.45 ± 0.14
5 | LEKVVPLINVVVDILSA [BRR2] |  |  |  | 1.26 ± 0.19
6 | RHGSVVEASRRRRSSTN [MED1] | 3.19 ± 0.073 | 3.41 ± 0.078 | 3.26 ± 0.045 | 3.3 ± 0.044
7 | EANWPLPVNIRRIIQNA [RPO21] | 1.77 ± 0.088 | 1.37 ± 0.089 |  | 1.04 ± 0.064
8 | KVISSDARGVIGVIAGG [RPL2A] | 2.81 ± 0.086 | 2.82 ± 0.091 | 2.85 ± 0.1 | 2.84 ± 0.12
9 | NKEYTLVHGIFGAKMSR [SIN4] | 2.75 ± 0.12 | 2.98 ± 0.13 | 3.15 ± 0.19 | 3.09 ± 0.11
10 | VDPVYKDVAKPTGPKTA [FAS2] | 2.99 ± 0.096 | 3.05 ± 0.1 | 2.52 ± 0.08 | 2.34 ± 0.069
11 | RLISSKMPGGFTITVAR [FAS2] | 1.65 ± 0.038 | 2 ± 0.063 | 1.52 ± 0.073 | 1.92 ± 0.044
12 | QQQMANNNGNPGTTSTG [GAL11] | 3.13 ± 0.11 | 3.44 ± 0.065 | 3.26 ± 0.049 | 3.31 ± 0.043
13 | KYKPTPLYVMDEIDAAL [SMC4] | 2.45 ± 0.085 | 3.06 ± 0.11 | 3 ± 0.07 | 2.81 ± 0.057
14 | EEEIKKFDSRIRGILMA [PRP8] | 2.71 ± 0.066 | 2.81 ± 0.074 | 2.69 ± 0.052 | 3.02 ± 0.051
15 | RAFLIEEQKIVKKVVKE [RPL34A] | 3.25 ± 0.099 | 3.02 ± 0.13 | 2.99 ± 0.12 | 3.26 ± 0.091
16 | TNFNEITNTDETITTKR [SWP82] | 3.13 ± 0.058 | 3.25 ± 0.061 | 3.08 ± 0.067 | 3.32 ± 0.045
17 | LEFYKDKFFNEVNKSEL [SIR3] | 3.31 ± 0.066 | 3.27 ± 0.058 | 3.25 ± 0.043 | 3.43 ± 0.064
18 | LMKCCHEAYSIIEKITD [RRP45] | 2.56 ± 0.067 | 2.68 ± 0.09 | 2.56 ± 0.086 | 2.52 ± 0.18
19 | AAVIALGFVLLRDYTTV [RPN2] | 1.59 ± 0.066 | 1.21 ± 0.081 | 1.22 ± 0.082 | 1.27 ± 0.048
20 | PITGASLDLIKERRSLK [RPL24A] | 3.04 ± 0.097 | 3.07 ± 0.078 | 3.02 ± 0.067 | 2.98 ± 0.06

Row | Sequence | protein stability index (doa10∆) | protein stability index (pdr5∆) | protein stability index (san1∆) | protein stability index (ubr1∆)
21 | EYKLATYGVPGSENKRG [NUT1] | 3.36 ± 0.086 | 3.25 ± 0.093 | 3.33 ± 0.046 | 2.96 ± 0.065
22 | KPVMEVTSSFFYRGNYT [FAS1] | 2.21 ± 0.065 | 2.11 ± 0.065 | 1.91 ± 0.12 | 2.1 ± 0.081
23 | KPSLVDVHLLESKVYHK [RPN6] | 1.74 ± 0.045 | 1.9 ± 0.053 | 1.77 ± 0.086 | 2.05 ± 0.061
24 | FKKTLRSRISSPHGLIN [SRB4] | 2.09 ± 0.049 | 2.15 ± 0.056 | 2.53 ± 0.065 | 2.15 ± 0.042
25 | QERQRQIQKNGPEITPE [PRP8] | 2.88 ± 0.11 | 3.2 ± 0.11 | 2.77 ± 0.11 | 2.85 ± 0.092
26 | AELLNEWHSSLTLKEAE [PUP2] |  | 2.93 ± 0.14 |  | 3.02 ± 0.17
27 | ILDLKEFDRRILKKSLM [RTT102] |  | 3.47 ± 0.23 | 3.19 ± 0.099 | 3.22 ± 0.28
28 | QEYLNPVIDTQIANEFN [YDL116W/NUP84] | 2.85 ± 0.053 | 2.96 ± 0.058 | 2.71 ± 0.046 | 2.88 ± 0.052
29 | EEKEEENGDEDEDEDED [QCR6] | 3.68 ± 0.17 | 3.34 ± 0.27 | 3.27 ± 0.084 | 3.64 ± 0.08
30 | ENQPFHGIKDIPIGHVH [AAR2] | 2.79 ± 0.078 | 2.98 ± 0.086 | 2.89 ± 0.084 | 2.67 ± 0.092
31 | AESMCQELELPGEFVTA [SNF5] | 2.4 ± 0.061 | 2.53 ± 0.057 | 2.62 ± 0.048 | 2.46 ± 0.081
32 | NEVCLEKENRFEIVDRE [SMC4] | 2.62 ± 0.089 | 2.92 ± 0.11 | 3.1 ± 0.1 | 3.3 ± 0.082
33 | AAAGGDAAAEEEKEEEA [RPP1B] | 3.32 ± 0.21 | 3.46 ± 0.16 | 3.16 ± 0.2 | 3.08 ± 0.23
34 | YKALRGMVSHKTARGKA [RPL16A] | 2.45 ± 0.08 | 2.1 ± 0.06 | 2.51 ± 0.096 | 1.84 ± 0.12
35 | LYFEIIHGVLKNVDREV [FAS2] | 3.04 ± 0.09 | 2.04 ± 0.099 | 2.63 ± 0.13 | 1.64 ± 0.18
36 | ISQKLTNVNVKIKDVQQ [SMC3] | 1.97 ± 0.12 | 2.34 ± 0.064 | 2.27 ± 0.14 | 2.32 ± 0.19
37 | VYKDNLSFIQVRIDLGT [RPO31] | 1.28 ± 0.071 | 1.58 ± 0.074 | 1.79 ± 0.1 | 1.52 ± 0.082
38 | AEKFVPIDIFQIIRRVK [SIR3] | 1.57 ± 0.28 | 1.46 ± 0.15 |  | 1.16 ± 0.2
39 | RIARALKQEGAANKTVV [RPL18A] | 3.44 ± 0.22 | 3.39 ± 0.095 | 2.95 ± 0.15 | 3.33 ± 0.052
